Experimental data taken from PMC8038143, “Conformation-Specific Inhibitory Anti-MMP-7 Monoclonal Antibody Sensitizes Pancreatic Ductal Adenocarcinoma Cells to Chemotherapeutic Cell Kill” (Cancers, 2021).

Key:
[1] = biological target: T1, recombinant catalytic human MMP-7 (active enzyme) (Homo sapiens, UniProt P09237); assay: cell-based or functional assay
[2] = biological target: T1, recombinant catalytic human MMP-7 …; assay: ELISA; 96-well plate coated with MMPs at 5 mg/mL; GSM-192 incubated at 25 °C for 1 h; detected with goat anti-Fab/anti-mouse antibody and peroxidase-conjugated anti-goat antibody; four-parametric sigmoidal fit; settings: both partners purified

T1 sequence (P09237 95-258): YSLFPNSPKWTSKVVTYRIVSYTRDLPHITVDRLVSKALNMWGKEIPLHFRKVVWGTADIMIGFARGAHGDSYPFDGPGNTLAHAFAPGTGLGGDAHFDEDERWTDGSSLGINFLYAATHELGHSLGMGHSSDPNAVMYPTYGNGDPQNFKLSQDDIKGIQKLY

EC50 [2]: 43 ± 1 nM
B1: GSM-192 anti-MMP-7 monoclonal antibody (antibody, V domains shown)
VH: EVQLQQSGPELVKPGASVKIPCKASGYTFTDYNMDWMKQSHGKSLEWIGHINPNNGGTFYNQKFKDKATFIVDKSSNTAYMELRSLTSEDTAVYFCARGGGLRRGPFAYWGQGTLVTVS
VL: DIVTQSPASLAVSLGQRATISCRASESFDSYGNTFVHWYQQKPGQPPKLLIYLVSNLESGVPAGFRGRGSRTDFTLTIDPVEADDAATYYCQQNNEDPYTFGGGTKLEIK
notes: Whole mouse monoclonal antibody; source: mouse hybridoma (BALB/c B cells fused with NSO myeloma cells), supernatant, purified (protein A column)
death of AsPC-1 PDAC cells treated with GSM-192, IC50 [1]: 2300 nM
death of CFPAC-1 PDAC cells treated with GSM-192, IC50 [1]: 4300 nM
